Source: patent US20120244166A1

What was measured:
[1] = target: Du156.12; experiment: ELISA
[2] = target: gp120 (HIV-1 strain YU2) (UniProt P35961); experiment: SPR

Substance | EC50 [1] | Kd [2]
9 (Heavy chain: K52N) | 0.056 µg/mL | 
5 (Heavy chain: P62K) | 0.066 µg/mL | 
8 (Heavy chain: I30T) | 0.063 µg/mL | 
3 (Heavy chain: A56G) | 0.101 µg/mL | 
11 (Heavy chain: R61Q) | 0.086 µg/mL | 
b12 |  | 38.1 nM
1 (Heavy chain: T33Y) | 0.048 µg/mL | 

The next lines start with results.

EC50 [1] | Substance | Kd [2]
0.164 µg/mL | 4 (Heavy chain: V57T) | 
0.063 µg/mL | 10 (Heavy chain: R53N) | 
0.097 µg/mL | 6 (Heavy chain: V73T) | 
0.071 µg/mL | 7 (Heavy chain: Y74S) | 
0.196 µg/mL | 12 (Light chain: Y30S) | 
